Results taken from publication PMC9549385.

Target: human delta-opioid receptor (human) (UniProt P41143)

Emax of ERK1/2 phosphorylation (% of SNC80 maximum, In-Cell Western) in CHO-K1-hDOPr cells, 5 min stimulation: 36 % SNC80
Substance: [D-Ala2, D-Leu5]-enkephalin (peptide)
